Series [1] has as its system GCase variants in HEK 293T cells. Put plainly: Western blot of GCase in LE fractions after co‐expression with FL‐LIMP‐2. Format: cell-based, human. The settings on record: versus FL‐LIMP‐2‐3xD. As for the experimental part:
SDS PAGE was performed using a Tris‐glycine buffer system (resolving buffer: ThermoFisher Scientific Inc., Waltham, MA, United States, #HC2215; stacking buffer: ThermoFisher Scientific Inc., Waltham, MA, United States, #HC2115; running buffer: 25 mM Tris, 192 mM glycine, […]). All samples were prepared by adding 5× Laemmli buffer (0.3 M Tris‐HCl, pH 6.8, 10% w/v SDS, 50% v/v glycerol, 5% v/v β‐mercaptoethanol, 5% w/v bromophenol blue) to the samples in a 1:5 ratio and heating the samples for 5 min at 95 °C. The samples were then separated over a 10% polyacrylamide gel. After SDS PAGE, wet blotting was performed to transfer the proteins onto a PVDF membrane (Merck Millipore, Billerica, MA, United States, #IPFL00010). […] After incubation, membranes were washed three times with TBS‐T (TBS + 0.1% v/v TWEEN‐20) before incubation with secondary antibodies for 2 h at RT followed by three more washing steps with TBS‐T. The fluorescence‐based acquisition was done using an Odyssey (LI‐COR Biosciences, Lincoln, NE, United States) or IBright (ThermoFisher Scientific Inc., Waltham, MA, United States) imaging system. […]
Quantification of western blot data was performed in ImageStudioLite 5.2 (LI‐COR Biosciences, Lincoln, NE, United States). […]

Series [2] has the same test system. Put plainly: GCase activity in LE fractions after co‐expression of GCase variants with FL‐LIMP‐2. Format: cell-based, human. The settings on record: versus FL‐LIMP‐2‐3xD. As for the experimental part:
(§1) HEK 293T cells (Leibniz Institute DSMZ‐German Collection of Microorganism and Cell Cultures GmbH, Braunschweig, Germany) were cultured on TC dishes (Sarstedt, Nümbrecht, Germany, #83.3902, #83.3903) in Dulbecco's modified eagle medium (DMEM, Gibco, Carlsbad, CA, United States) supplemented with 10% fetal calf serum (FCS, PANbiotech, Aidenbach, Germany) and 1× penicillin/streptomycin (Sigma‐Aldrich, St. Louis, MO, United States, #P0781) at 37 °C, 5% CO2 and 95% humidity. Passaging was done at 70–90% confluence by detaching with trypsin (PAN‐Biotech, Aidenbach, Germany, #P10‐023100) for 5 min and transferring part of the culture to a new dish containing fresh medium. The HEK 293T cells were transfected using PEI at 60–70% confluence. For a 10 cm TC dish, the transfection mix was prepared by adding 5 µg plasmid DNA, 15 µg of PEI (ratio of 1:3 DNA to PEI) to 300 µl DMEM without FCS. After incubation for 25 min at room temperature, the mix was added to the cells. If the cell supernatant was analyzed, the cells were washed twice with phosphate‐buffered saline (PBS, Gibco, Carlsbad, CA, United States) and the medium was changed to DMEM without FCS 16 h after transfection.
Activity of GCase‐containing samples (recombinant protein, cell lysate, LE fractions, conditioned culture medium) was measured using the synthetic substrate 4‐methylumbelliferyl‐β‐D‐glucopyranoside (4MU, Merck Millipore, Billerica, MA, United States, #M3633). […] of the sample (cell supernatant, SEC fractions) or 2.5 µg of total protein from whole‐cell lysates were added to the well of a black 96‐well Maxisorp plate (ThermoFisher Scientific Inc., Waltham, MA, United States, #437 111). The reaction volume was then increased to 100 µL with GCase activity buffer (see paragraph “Cell Lysis”) and a final concentration of 1 µM of 4MU substrate was added. After incubation at 37 °C for 30 min, the reaction was stopped by adding 100 µL of stop solution (0.1 M glycine, pH 10.4). GCase activity was quantified via fluorescence of released 4‐methylumbelliferone (endpoint measurement) using an Infinite 200 Pro (TECAN, Männedorf, Switzerland), SpectraMax Gemini (Molecular Devices, San José, CA, United States) or ClarioStar (BMG LABTECH, Ortenberg, Germany) multiplate reader (λ ex: 365 nm; λ em: 445 nm).
For evaluation, all data sets obtained for GCase enzymatic activity were baseline‐corrected and normalized to the overall signal (either total signal or average of controls) within each replicate experiment to correct for signal differences between different measurement devices and replicate measurements.

Another series has as its system GCase variants. The note with it: cited from earlier work. From the text:
The link between GCase and PD was first established when studies found an increased prevalence of PD in GD patients and their relatives.^[ [14], [15], [16] ^] […] All three variants are characterized by compromised stability and/or enzyme activity. The L444P variant ...

The test system of series [3] is GCase variants in HEK 293T cell lysates. In words: GCase activity in cell lysates of cells overexpressing GCase variants. Format: cell-based, human. The note with it: 4MU; for GCase activity compared with mock: cell lysates, N370S n = 3, L444P n = 5. As for the experimental part: as §1
Harvested cells were washed three times with cold PBS and pelleted (1.000 × g, 3 min, 4 °C). […] Protein concentrations were determined using Pierce BCA Protein Assay Kit (ThermoFisher Scientific Inc., Waltham, MA, United States, #23 227).
Activity of GCase‐containing samples (recombinant protein, cell lysate, LE fractions, conditioned culture medium) was measured using the synthetic substrate 4‐methylumbelliferyl‐β‐D‐glucopyranoside (4MU, Merck Millipore, Billerica, MA, United States, #M3633). […] GCase activity was quantified via fluorescence of released 4‐methylumbelliferone (endpoint measurement) using an Infinite 200 Pro (TECAN, Männedorf, Switzerland), SpectraMax Gemini (Molecular Devices, San José, CA, United States) or ClarioStar (BMG LABTECH, Ortenberg, Germany) multiplate reader (λ ex: 365 nm; λ em: 445 nm). […]

Consider four molecules from PMC11220700, “Activation and Purification of ß‐Glucocerebrosidase by Exploiting its Transporter LIMP‐2 – Implications for Novel Treatment Strategies in Gaucher's and Parkinson's Disease” (Advanced Science, 2024).

B1: FL‐LIMP‐2: full‐length, membrane‐anchored wt LIMP‐2 (protein, UniProt Q14108 1-478, looked up)
chain: MGRCCFYTAGTLSLLLLVTSVTLLVARVFQKAVDQSIEKKIVLRNGTEAFDSWEKPPLPVYTQFYFFNVTNPEEILRGETPRVEEVGPYTYRELRNKANIQFGDNGTTISAVSNKAYVFERDQSVGDPKIDLIRTLNIPVLTVIEWSQVHFLREIIEAMLKAYQQKLFVTHTVDELLWGYKDEILSLIHVFRPDISPYFGLFYEKNGTNDGDYVFLTGEDSYLNFTKIVEWNGKTSLDWWITDKCNMINGTDGDSFHPLITKDEVLYVFPSDFCRSVYITFSDYESVQGLPAFRYKVPAEILANTSDNAGFCIPEGNCLGSGVLNVSICKNGAPIIMSFPHFYQADERFVSAIEGMHPNQEDHETFVDINPLTGIILKAAKRFQINIYVKKLDDFVETGDIRTMVFPVMYLNESVHIDKETASRLKSMINTTLIITNIPYIIMALGVFFGLVFTWLACKGQGSMDEGTADERAPLIRT
modifications: full-length
Take B1: the “lysosomal GCase levels of wt, E326K and N370S” value in series [1] is “exceeded those of the FL‐LIMP‐2‐3xD control”. In addition, the “GCase activity in LE fractions, E326K” value in series [2] (co‐expression with GCase E326K) was “significant increases”. Besides, in series [2] (co‐expression with GCase L444P), the “GCase transport and activity, L444P” value was “both transport and activity could not be rescued by LIMP‐2”. For the same molecule, the “GCase activity in LE fractions, N370S” value in series [2] (co‐expression with GCase N370S) is listed as “no increase in enzymatic activity could be determined”. In series [2] (co‐expression with GCase wt), the “GCase activity in LE fractions, wt” value was “significant increases”.

B2: E326K: PD‐associated GCase variant (protein)
chain: ARPCIPKSFGYSSVVCVCNATYCDSFDPPTFPALGTFSRYESTRSGRRMELSMGPIQANHTGTGLLLTLQPEQKFQKVKGFGGAMTDAAALNILALSPPAQNLLLKSYFSEEGIGYNIIRVPMASCDFSIRTYTYADTPDDFQLHNFSLPEEDTKLKIPLIHRALQLAQRPVSLLASPWTSPTWLKTNGAVNGKGSLKGQPGDIYHQTWARYFVKFLDAYAEHKLQFWAVTAENEPSAGLLSGYPFQCLGFTPEHQRDFIARDLGPTLANSTHHNVRLLMLDDQRLLLPHWAKVVLTDPEAAKYVHGIAVHWYLDFLAPAKATLGKTHRLFPNTMLFASEACVGSKFWEQSVRLGSWDRGMQYSHSIITNLLYHVVGWTDWNLALNPEGGPNWVRNFVDSPIIVDITKDTFYKQPMFYHLGHFSKFIPEGSQRVGLVASQKNDLDAVALMHPDGSAVVVVLNRSSKDVPLTIKDPAVGFLETISPGYSIHTYLWRRQ
In the case of B2, the “residual activity of GCase variant (literature)” value with GCase variants is recorded as “≈ 40%”. For the same molecule, the “residual activity of GCase variant” value in series [3] (HEK 293T cell lysates, versus wt, n = 5, mean ± SEM) worked out at 40.0 ± 2.2%.

B3: L444P: disease‐associated GCase variant (protein)
chain: ARPCIPKSFGYSSVVCVCNATYCDSFDPPTFPALGTFSRYESTRSGRRMELSMGPIQANHTGTGLLLTLQPEQKFQKVKGFGGAMTDAAALNILALSPPAQNLLLKSYFSEEGIGYNIIRVPMASCDFSIRTYTYADTPDDFQLHNFSLPEEDTKLKIPLIHRALQLAQRPVSLLASPWTSPTWLKTNGAVNGKGSLKGQPGDIYHQTWARYFVKFLDAYAEHKLQFWAVTAENEPSAGLLSGYPFQCLGFTPEHQRDFIARDLGPTLANSTHHNVRLLMLDDQRLLLPHWAKVVLTDPEAAKYVHGIAVHWYLDFLAPAKATLGETHRLFPNTMLFASEACVGSKFWEQSVRLGSWDRGMQYSHSIITNLLYHVVGWTDWNLALNPEGGPNWVRNFVDSPIIVDITKDTFYKQPMFYHLGHFSKFIPEGSQRVGLVASQKNDPDAVALMHPDGSAVVVVLNRSSKDVPLTIKDPAVGFLETISPGYSIHTYLWRRQ
For the molecule B3, the “stability and activity of GCase variant (literature)” value with GCase variants was “impaired stability and highly impaired activity”. For the same molecule, the “GCase activity compared with mock” value in series [3] was “do not differ significantly from the mock”.

B4: N370S: disease‐associated GCase variant (protein)
chain: ARPCIPKSFGYSSVVCVCNATYCDSFDPPTFPALGTFSRYESTRSGRRMELSMGPIQANHTGTGLLLTLQPEQKFQKVKGFGGAMTDAAALNILALSPPAQNLLLKSYFSEEGIGYNIIRVPMASCDFSIRTYTYADTPDDFQLHNFSLPEEDTKLKIPLIHRALQLAQRPVSLLASPWTSPTWLKTNGAVNGKGSLKGQPGDIYHQTWARYFVKFLDAYAEHKLQFWAVTAENEPSAGLLSGYPFQCLGFTPEHQRDFIARDLGPTLANSTHHNVRLLMLDDQRLLLPHWAKVVLTDPEAAKYVHGIAVHWYLDFLAPAKATLGETHRLFPNTMLFASEACVGSKFWEQSVRLGSWDRGMQYSHSIITSLLYHVVGWTDWNLALNPEGGPNWVRNFVDSPIIVDITKDTFYKQPMFYHLGHFSKFIPEGSQRVGLVASQKNDLDAVALMHPDGSAVVVVLNRSSKDVPLTIKDPAVGFLETISPGYSIHTYLWRRQ
Turning to B4, in the series with GCase variants, the “stability and activity of GCase variant (literature)” value is “stable with low residual activity”. Besides, in series [3], the “GCase activity compared with mock” value was “do not differ significantly from the mock”.
